{
  "source": "patent US20040077046",
  "system": "3H-acetylated histone H4 peptide ([3H]-Ac(H41-24))",
  "data": [
    {"substance": "flag epitope-tagged HDAC9 (HDAC9v1 with C-terminal flag tag)", "values": [
      {"measurement": "in vitro histone deacetylase assay (release of 3H-acetate from the peptide by immunoprecipitated enzyme)", "value": "HDAC9 could deacetylate the histone peptide substrate at a level that was equivalent to UDAC3 and HDAC4"}
    ]}
  ]
}
